Source: patent publication US6051232

Biological target: wild type RT1.A^a (rat MHC class I antigen) on transfected BUF (RT1^b) Morris hepatoma 7316A cells (rat)
Experiment: flow cytometry on BUF hepatoma cells transfected with WT-RT1.A^a, FITC rabbit anti-rat Ig

- positive staining (percent of cells): > 90%
Substance: R2/15S anti-rat RT1.A^a class I polymorphic monoclonal antibody (tool reagent)
